Results on one protein are retold here after PMC10033279.

Substrate in the series: NC(=O)C1=CN([C@@H]2O[C@H](COP(=O)(O)OP(=O)(O)OC[C@H]3O[C@@H](n4cnc5c(N)ncnc54)[C@H](O)[C@@H]3O)[C@@H](O)[C@H]2O)C=CC1
The series can be described thus: purified protein. Type of series: biochemical, Pseudomonas aeruginosa. Conditions: varied 1,4-benzoquinone, 20 mM KPi, 200 mM NaCl, pH 7.0, 25 °C.

B1: NADH:quinone oxidoreductase (NQO), PA1024 (Pseudomonas aeruginosa PAO1) (protein)
chain: MGVFRTRFTETFGVEHPIMQGGMQWVGRAEMAAAVANAGGLATLSALTQPSPEALAAEIARCRELTDRPFGVNLTLLPTQKPVPYAEYRAAIIEAGIRVVETAGNDPGEHIAEFRRHGVKVIHKCTAVRHALKAERLGVDAVSIDGFECAGHPGEDDIPGLVLLPAAANRLRVPIIASGGFADGRGLVAALALGADAINMGTRFLATRECPIHPAVKAAIRAADERSTDLIMRSLRNTARVARNAISQEVLAIEARGGAGYADIAALVSGQRGRQVYQQGDTDLGIWSAGMVQGLIDDEPACAELLRDIVEQARQLVRQRLEGMLAGV
notes: full-length gene PA1024 in pET20b(+), expressed in E. coli Rosetta(DE3)pLysS, purified; EC 1.6.5.9
With B1, the Km (in general, the substrate concentration at which the rate is half of its maximum) came out at 70 ± 10 µM; the kcat (commonly the number of substrate molecules converted per active site and unit of time at saturation) was found to be 27 ± 1 s⁻¹.
